Results published in publication PMC4195687, “Computational and Experimental Characterization of dVHL Establish a Drosophila Model of VHL Syndrome” (PLoS ONE, 2014).
Where no end group is shown, it is not given here. [ ]: non-standard residue; d: D form. Hyp = O=C(O)[C@@H]1C[C@@H](O)CN1

T1: Drosophila von Hippel-Lindau protein dVHL (Drosophila melanogaster, UniProt Q9V3C1 1-178)
T1 construct: Drosophila melanogaster VHL (dVHL), ORF re-engineered to E. coli codon usage, cloned in pET14b (NdeI/XhoI); migrated as a 19 kDa protein; also called Drosophila VHL
T1 sequence (looked up): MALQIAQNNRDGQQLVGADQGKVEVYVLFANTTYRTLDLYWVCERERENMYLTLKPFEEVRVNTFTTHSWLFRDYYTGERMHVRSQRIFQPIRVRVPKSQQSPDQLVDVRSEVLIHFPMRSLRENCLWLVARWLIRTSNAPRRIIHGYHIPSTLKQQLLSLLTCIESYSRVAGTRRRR

B1: Hyp402-ODD-HIF peptide (HIF1-α residues 395-413, hydroxyproline 402, TAMRA-labelled) (peptide)
peptide: DALTLLA[Hyp]AAGDTIISLDF
modifications: also: TAMRA label, position not given here
notes: human HIF1-α, residues 395-413 of the oxygen dependent degradation domain; also called HIF1-α P402; HIF1-α-derived peptide; source: synthetic peptide (Hy Laboratory Ltd, Israel)
B2: Hyp850-ODD-SIMA peptide (SIMA residues 841-857, hydroxyproline 850, TAMRA-labelled) (peptide)
peptide: SFEAFAGRA[Hyp]YIPIDDD
modifications: also: TAMRA label, position not given here
notes: Drosophila SIMA (fly homolog of HIF1-α), residues 841-857 of its ODD; The peptide has two prolines (P850 and P853); by its name the hydroxylated one is P850; also called SIMA-derived peptide; source: synthetic peptide (Hy Laboratory Ltd, Israel)

Key:
[1] = molecular target: T2, human von Hippel-Lindau tumor suppressor protein pVHL (19 kDa) (human, UniProt P40337-3 1-160); assay: ELISA; ELISA-based binding assay: pVHL or dVHL (10 µg/ml, 500 nM, in 10 mM Tris-HCl pH 8, 200 mM NaCl, 200 mM GnHCl) coated on the plate overnight at 4°C, blocked with 5% BSA; TAMRA-labelled peptide at increasing concentrations, 1 h at 25°C; fluorescence at 580 nm, after subtraction of the BSA control; conditions: both partners purified
T2 construct: numbers count on: the 30 kDa isoform (Y98, W117 and so on)

[2] = molecular target: T1, Drosophila von Hippel-Lindau protein …; assay: as above; conditions: both partners purified

T2 sequence (P40337 54-213): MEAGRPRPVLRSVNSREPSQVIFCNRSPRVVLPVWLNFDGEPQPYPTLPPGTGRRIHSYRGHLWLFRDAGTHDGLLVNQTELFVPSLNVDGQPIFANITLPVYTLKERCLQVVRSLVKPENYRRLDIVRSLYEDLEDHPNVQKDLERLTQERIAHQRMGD

fold stronger binding than to dVHL [1] [fold] | binding result [2] | Binder
~1.5 | binds | B1
~1.5 | binds | B2
